In patent US20220396612A1 (UNIVERSIT DE TOURS, published 2022):

T1: virus-like particles (VLPs) of BK polyomavirus VP-1 protein, serotype Ia (BK virus (BKPyV), serotype Ia, UniProt P03088 1-361)
T1 construct: self-assembled native VLPs coated on ELISA plates; also called VLP Ia; BKV VP-1, serotype Ia
T1 chain: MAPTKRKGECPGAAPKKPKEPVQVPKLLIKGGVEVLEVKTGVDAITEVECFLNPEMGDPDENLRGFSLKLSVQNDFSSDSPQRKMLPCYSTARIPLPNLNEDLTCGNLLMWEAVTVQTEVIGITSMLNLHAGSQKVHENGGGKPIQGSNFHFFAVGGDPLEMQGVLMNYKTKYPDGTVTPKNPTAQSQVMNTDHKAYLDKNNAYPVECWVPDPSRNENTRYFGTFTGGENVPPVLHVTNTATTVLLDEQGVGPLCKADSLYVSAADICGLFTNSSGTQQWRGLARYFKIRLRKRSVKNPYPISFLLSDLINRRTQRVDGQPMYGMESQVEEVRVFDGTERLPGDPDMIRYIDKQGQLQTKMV

T2: virus-like particles (VLPs) of BK polyomavirus VP-1 protein, serotype IV (BK virus (BKPyV), serotype IV, UniProt P14996 1-362)
T2 construct: native VLPs; also called VLP IV
T2 chain: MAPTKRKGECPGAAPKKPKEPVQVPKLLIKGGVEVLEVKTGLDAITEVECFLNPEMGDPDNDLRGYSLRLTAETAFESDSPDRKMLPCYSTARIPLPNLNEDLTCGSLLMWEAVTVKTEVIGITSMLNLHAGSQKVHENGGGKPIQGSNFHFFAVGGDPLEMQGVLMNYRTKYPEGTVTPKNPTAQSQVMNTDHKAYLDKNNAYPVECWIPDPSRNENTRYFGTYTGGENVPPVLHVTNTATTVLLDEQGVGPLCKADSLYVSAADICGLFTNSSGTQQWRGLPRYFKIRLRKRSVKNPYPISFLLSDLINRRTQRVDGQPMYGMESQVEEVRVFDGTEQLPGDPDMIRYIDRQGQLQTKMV

T3: virus-like particles (VLPs) of BK polyomavirus VP-1 protein, serotype III (BK virus (BKPyV), serotype III, UniProt P14996 1-362)
T3 construct: native VLPs; also called VLP III
T3 chain: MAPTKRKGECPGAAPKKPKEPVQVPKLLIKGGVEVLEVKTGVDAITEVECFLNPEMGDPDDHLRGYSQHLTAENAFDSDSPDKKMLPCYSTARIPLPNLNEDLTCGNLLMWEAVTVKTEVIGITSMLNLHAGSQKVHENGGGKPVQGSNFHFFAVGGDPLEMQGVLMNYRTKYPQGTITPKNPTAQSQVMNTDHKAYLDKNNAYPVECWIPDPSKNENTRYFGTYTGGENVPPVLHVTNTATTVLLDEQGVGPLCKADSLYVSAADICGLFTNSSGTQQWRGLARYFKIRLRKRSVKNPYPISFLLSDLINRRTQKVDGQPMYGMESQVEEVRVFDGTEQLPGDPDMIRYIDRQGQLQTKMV

T4: virus-like particles (VLPs) of BK polyomavirus VP-1 protein, serotype II (BK virus (BKPyV), serotype II, UniProt P14996 1-362)
T4 construct: native VLPs; also called VLP II
T4 chain: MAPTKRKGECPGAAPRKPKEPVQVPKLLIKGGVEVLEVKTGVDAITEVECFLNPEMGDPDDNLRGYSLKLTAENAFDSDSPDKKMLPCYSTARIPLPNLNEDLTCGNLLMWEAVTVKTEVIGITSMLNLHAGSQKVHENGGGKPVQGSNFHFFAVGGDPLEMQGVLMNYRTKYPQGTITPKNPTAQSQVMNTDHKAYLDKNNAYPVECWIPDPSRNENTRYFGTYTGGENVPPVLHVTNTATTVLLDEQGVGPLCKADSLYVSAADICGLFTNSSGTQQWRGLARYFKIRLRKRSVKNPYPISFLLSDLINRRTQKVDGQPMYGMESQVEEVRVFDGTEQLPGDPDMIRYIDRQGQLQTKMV

T5: virus-like particles (VLPs) of BK polyomavirus VP-1 protein, serotype Ib2 (BK virus (BKPyV), serotype Ib2, PA …, UniProt P03088 1-362)
T5 construct: native VLPs; also the immunogen; also called VLP Ib2; BK Ib2
T5 chain: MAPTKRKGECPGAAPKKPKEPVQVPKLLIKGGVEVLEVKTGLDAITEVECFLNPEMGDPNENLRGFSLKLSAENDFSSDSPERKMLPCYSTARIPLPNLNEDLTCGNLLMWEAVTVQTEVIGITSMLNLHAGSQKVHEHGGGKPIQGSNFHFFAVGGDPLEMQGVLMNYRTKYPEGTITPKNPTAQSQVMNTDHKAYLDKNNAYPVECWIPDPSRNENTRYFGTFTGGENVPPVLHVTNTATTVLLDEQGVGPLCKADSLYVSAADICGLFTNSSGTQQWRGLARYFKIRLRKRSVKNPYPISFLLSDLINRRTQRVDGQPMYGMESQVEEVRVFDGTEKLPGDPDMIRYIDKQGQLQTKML


How the values were obtained:
[1] = molecular target: T1, virus-like particles (VLPs) of BK …; experiment: ELISA on coated VLP;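 further: hybridoma culture supernatants (mouse antibodies) tested on wells coated with 1 µg/mL VLPs, peroxidase anti-mouse detection with OPD, background from PBS-coated control wells subtracted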
Method: (§1) To do this, the VLPs produced were deposited at a concentration of 1 μg/mL in PBS and incubated overnight at +4° C. The wells were then blocked for 1 h at +37° C. with a PBS/FCS (phosphate-buffered saline/fetal calf serum) mixture. After dilution in a dilution buffer containing FCS, PBS and Tween® 20, the various hybridoma culture supernatants were added for 1 h at +37° C. The wells were washed four times in a row with Wash Buffer and a secondary anti-mouse antibody coupled to peroxidase was added to the 1:2000 dilution for 1 h at +37° C. The wells were washed four more times and the substrate (OPD (ortho phenylene diamine)+H₂O₂) was added for 30 min at room temperature. A stop solution (H₂SO₄ 4N) was then added and each well was read by measuring the absorbance at 492 nm with a spectrophotometer. The value obtained for the average of the control wells (PBS in the first step) is subtracted from the optical density values obtained for each well.

[2] = molecular target: T2, virus-like particles (VLPs) of BK …; experiment: ELISA on coated VLP;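 further: hybridoma culture supernatants (mouse antibodies) tested on wells coated with 1 µg/mL VLPs, peroxidase anti-mouse detection with OPD, background from PBS-coated control wells subtracted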
Method: as §1

[3] = molecular target: T3, virus-like particles (VLPs) of BK …; experiment: ELISA on coated VLP;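 further: hybridoma culture supernatants (mouse antibodies) tested on wells coated with 1 µg/mL VLPs, peroxidase anti-mouse detection with OPD, background from PBS-coated control wells subtracted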
Method: as §1

[4] = molecular target: T4, virus-like particles (VLPs) of BK …; experiment: ELISA on coated VLP;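 further: hybridoma culture supernatants (mouse antibodies) tested on wells coated with 1 µg/mL VLPs, peroxidase anti-mouse detection with OPD, background from PBS-coated control wells subtracted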
Method: as §1

[5] = molecular target: T5, virus-like particles (VLPs) of BK …; experiment: ELISA on coated VLP
Method: as §1

[6] = molecular target: T1, virus-like particles (VLPs) of BK …; experiment: ELISA on not denatured VLP (threshold OD>0.5)
Method: (§2) The wells were then blocked for 1 hour at +37° C. with a PBS/SVF mixture. After dilution in a dilution buffer containing SVF, PBS and Tween® 20, the individual culture supernatants or purified antibodies were added for 1 hour at +37° C. The wells were washed four times in a row with Wash Buffer and a secondary anti-mouse peroxidase antibody was added to the 1/2000 dilution for 1 hour at +37° C. The wells were washed again four times in a row and the substrate was added for 30 minutes at room temperature. A stop solution was added and then each well was read by measuring the absorbance at 492 nm with a spectrophotometer. The value obtained for the average of the control wells (PBS in the first step) was subtracted from the optical density values obtained for each well (detection threshold: OD>0.5).

[7] = molecular target: T2, virus-like particles (VLPs) of BK …; experiment: ELISA on not denatured VLP (threshold OD>0.5)
Method: as §2

[8] = molecular target: T4, virus-like particles (VLPs) of BK …; experiment: ELISA on not denatured VLP (threshold OD>0.5)
Method: as §2

[9] = molecular target: T5, virus-like particles (VLPs) of BK …; experiment: ELISA on not denatured VLP (threshold OD>0.5)
Method: as §2

[10] = molecular target: T6, virus-like particles (VLPs) of JC polyomavirus VP-1 protein (JC virus (JCPyV), UniProt P03089 1-354, Assembled into virus-like particles (many VP-1 copies); the letters give one VP-1 chain.); experiment: ELISA on coated JCPyV VLPs
T6 construct: Expressed in insect cells by baculovirus; VLPs coated on ELISA plates; also called JCPyV VLPs; JCPyV
T6 sequence (P03089 whole entry): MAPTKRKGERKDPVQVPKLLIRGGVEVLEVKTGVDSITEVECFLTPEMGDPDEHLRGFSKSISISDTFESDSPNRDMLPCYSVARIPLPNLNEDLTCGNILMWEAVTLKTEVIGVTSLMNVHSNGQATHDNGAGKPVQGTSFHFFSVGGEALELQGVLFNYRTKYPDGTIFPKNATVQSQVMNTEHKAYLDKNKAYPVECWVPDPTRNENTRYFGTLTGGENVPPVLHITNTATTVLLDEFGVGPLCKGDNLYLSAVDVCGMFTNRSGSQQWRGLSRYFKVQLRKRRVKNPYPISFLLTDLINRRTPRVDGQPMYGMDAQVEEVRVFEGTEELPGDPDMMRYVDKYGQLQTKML

[11] = molecular target: T6, virus-like particles (VLPs) of JC …; experiment: ELISA on coated VLP (detection limit OD>0.5)
Method: as §1

[12] = molecular target: T5, virus-like particles (VLPs) of BK …; experiment: ELISA on coated VLP (detection limit OD>0.5)
Method: as §1

Row | Binder | OD 492 nm [1] | OD 492 nm [2] | OD 492 nm [3] | OD 492 nm [4] | OD 492 nm [5] | OD 492 nm [6] | OD 492 nm [7] | OD 492 nm [8] | OD 492 nm [9] | binding result [10] | OD 492 nm [11] | OD 492 nm [12]
1 | monoclonal antibody ‘14D6’ derived from hybridoma 14D6 (antibody, V domains shown) VH: DVQLQESGPGLVKPSQSLSLTCSVTGYSITSGYYWNWIRQFPGNKLEWMGYISYDGSNNYNPSLKNRISITRDTSKNQFFLKLNSVTTEDTATYYCARWVGDWYFDVWGAGTTVTVSS VL: DIVLTQSPASLAVSLGQRATISCRASKSVSPSGYSYMHWYQQKPGQPPKLLIYLASNLESGVPARFSGSGSGTDFTLNIHPVEEEDAATYYCQHSRELPLTFGAGTKLELK | 3.24 OD | 2.62 OD | 2.55 OD | 3.08 OD | 3.24 OD | 4.04 OD | 2.63 OD | 1.66 OD | 1.55 OD | no binding (tested: detection limit: OD>0.5) | 0.112 OD | 1.55 OD
2 | monoclonal antibody ‘9B1’ derived from hybridoma 9B1 (antibody, V domains shown, also called ‘91B1’) VH: DVQLQESGPGLVKPSQSLSLTCSVTGYSITSGYYWNWIRQFPGNKLEWMGYISYDGSNNYNPSLKNRISITRDTSKNQFFLKLNSVTTEDTATYYCARVDGNSWYFDVWGAGTTVTVSS VL: DIQMTQSSSSFSVSLGDRVTITCKASEDIYNRLAWYQQKPGNAPRLLISGATSLETGVPSRFSGSGSGKDYTLSITSLQTEDVATYYCQQYWSILLTFGAGTKLELK | 3.13 OD | 2.52 OD | 1.74 OD | 1.75 OD | 3.3 OD | 4.21 OD | 2.12 OD | 1.07 OD | 1.41 OD | no binding (tested: detection limit: OD>0.5) | 0.119 OD | 1.41 OD
